B1: Mitogen-activated protein kinase kinase 2 (Arabidopsis thaliana (Mouse-ear cress)), Q9S7U9 (parent)
chain: MKKGGFSNNLKLAIPVAGEQSITKFLTQSGTFKDGDLRVNKDGVRIISQLEPEVLSPIKPADDQLSLSDLDMVKVIGKGSSGVVQLVQHKWTGQFFALKVIQLNIDEAIRKAIAQELKINQSSQCPNLVTSYQSFYDNGAISLILEYMDGGSLADFLKSVKAIPDSYLSAIFRQVLQGLIYLHHDRHIIHRDLKPSNLLINHRGEVKITDFGVSTVMTNTAGLANTFVGTYNYMSPERIVGNKYGNKSDIWSLGLVVLECATGKFPYAPPNQEETWTSVFELMEAIVDQPPPALPSGNFSPELSSFISTCLQKDPNSRSSAKELMEHPFLNKYDYSGINLASYFTDAGSPLATLGNLSGTFSV
B2: Mitogen-activated protein kinase kinase 1 (Arabidopsis thaliana (Mouse-ear cress)), Q94A06 (parent)
chain: MNRGSLCPNPICLPPLEQSISKFLTQSGTFKDGDLRVNKDGIQTVSLSEPGAPPPIEPLDNQLSLADLEVIKVIGKGSSGNVQLVKHKLTQQFFALKVIQLNTEESTCRAISQELRINLSSQCPYLVSCYQSFYHNGLVSIILEFMDGGSLADLLKKVGKVPENMLSAICKRVLRGLCYIHHERRIIHRDLKPSNLLINHRGEVKITDFGVSKILTSTSSLANSFVGTYPYMSPERISGSLYSNKSDIWSLGLVLLECATGKFPYTPPEHKKGWSSVYELVDAIVENPPPCAPSNLFSPEFCSFISQCVQKDPRDRKSAKELLEHKFVKMFEDSDTNLSAYFTDAGSLIPPLAN
partner: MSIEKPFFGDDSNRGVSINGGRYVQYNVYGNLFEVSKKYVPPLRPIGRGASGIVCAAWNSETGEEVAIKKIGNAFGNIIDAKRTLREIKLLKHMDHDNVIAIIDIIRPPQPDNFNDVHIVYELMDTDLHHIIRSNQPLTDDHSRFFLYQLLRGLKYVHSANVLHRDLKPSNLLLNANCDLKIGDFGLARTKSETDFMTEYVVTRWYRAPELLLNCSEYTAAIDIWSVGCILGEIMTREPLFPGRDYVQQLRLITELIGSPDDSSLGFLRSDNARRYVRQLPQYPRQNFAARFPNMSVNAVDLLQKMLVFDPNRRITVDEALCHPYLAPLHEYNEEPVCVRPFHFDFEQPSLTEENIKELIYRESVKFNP
B3: Mitogen-activated protein kinase kinase 1 (Arabidopsis thaliana (Mouse-ear cress)), Q94A06 (parent)
chain: B2 chain
partner: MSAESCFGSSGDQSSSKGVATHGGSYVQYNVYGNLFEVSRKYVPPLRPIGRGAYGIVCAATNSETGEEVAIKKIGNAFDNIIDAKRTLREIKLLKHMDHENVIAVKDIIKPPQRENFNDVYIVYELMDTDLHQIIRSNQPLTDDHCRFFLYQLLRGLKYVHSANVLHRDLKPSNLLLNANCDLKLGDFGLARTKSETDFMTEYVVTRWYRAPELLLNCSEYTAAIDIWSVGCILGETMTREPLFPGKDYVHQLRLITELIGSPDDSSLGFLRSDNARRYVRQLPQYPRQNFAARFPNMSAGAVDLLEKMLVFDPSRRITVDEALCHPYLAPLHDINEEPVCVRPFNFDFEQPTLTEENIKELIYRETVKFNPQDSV

Variants of: B1
Conditions: with mpk6_arath MPK6, Q39026
mpk6_arath MPK6, Q39026, sequence (Q39026 whole entry): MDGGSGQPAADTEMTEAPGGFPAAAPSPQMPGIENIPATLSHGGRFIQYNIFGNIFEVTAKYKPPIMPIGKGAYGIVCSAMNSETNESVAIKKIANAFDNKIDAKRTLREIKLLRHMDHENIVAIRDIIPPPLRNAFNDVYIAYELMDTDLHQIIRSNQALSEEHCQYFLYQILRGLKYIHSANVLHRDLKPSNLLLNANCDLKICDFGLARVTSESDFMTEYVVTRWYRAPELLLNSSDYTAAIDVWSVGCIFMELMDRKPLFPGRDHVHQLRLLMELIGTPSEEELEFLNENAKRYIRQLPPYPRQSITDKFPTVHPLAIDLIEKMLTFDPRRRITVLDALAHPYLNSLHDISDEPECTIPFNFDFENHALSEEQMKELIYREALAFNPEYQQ

effect of a mutation on the interaction	Variant
increasing interaction	MKKGGFSNNLKLAIPVAGEQSITKFLTQSGTFKDGDLRVNKDGVRIISQLEPEVLSPIKPADDQLSLSDLDMVKVIGKGSSGVVQLVQHKWTGQFFALKVIQLNIDEAIRKAIAQELKINQSSQCPNLVTSYQSFYDNGAISLILEYMDGGSLADFLKSVKAIPDSYLSAIFRQVLQGLIYLHHDRHIIHRDLKPSNLLINHRGEVKITDFGVSTVMTNDAGLANTFVGTYNYMSPERIVGNKYGNKSDIWSLGLVVLECATGKFPYAPPNQEETWTSVFELMEAIVDQPPPALPSGNFSPELSSFISTCLQKDPNSRSSAKELMEHPFLNKYDYSGINLASYFTDAGSPLATLGNLSGTFSV [T220D]
increasing interaction	MKKGGFSNNLKLAIPVAGEQSITKFLTQSGTFKDGDLRVNKDGVRIISQLEPEVLSPIKPADDQLSLSDLDMVKVIGKGSSGVVQLVQHKWTGQFFALKVIQLNIDEAIRKAIAQELKINQSSQCPNLVTSYQSFYDNGAISLILEYMDGGSLADFLKSVKAIPDSYLSAIFRQVLQGLIYLHHDRHIIHRDLKPSNLLINHRGEVKITDFGVSTVMTNTAGLANEFVGTYNYMSPERIVGNKYGNKSDIWSLGLVVLECATGKFPYAPPNQEETWTSVFELMEAIVDQPPPALPSGNFSPELSSFISTCLQKDPNSRSSAKELMEHPFLNKYDYSGINLASYFTDAGSPLATLGNLSGTFSV [T226E]

Variants of: B1
Conditions: with mpk10_arath MPK10, Q9M1Z5
mpk10_arath MPK10, Q9M1Z5, sequence (Q9M1Z5 whole entry): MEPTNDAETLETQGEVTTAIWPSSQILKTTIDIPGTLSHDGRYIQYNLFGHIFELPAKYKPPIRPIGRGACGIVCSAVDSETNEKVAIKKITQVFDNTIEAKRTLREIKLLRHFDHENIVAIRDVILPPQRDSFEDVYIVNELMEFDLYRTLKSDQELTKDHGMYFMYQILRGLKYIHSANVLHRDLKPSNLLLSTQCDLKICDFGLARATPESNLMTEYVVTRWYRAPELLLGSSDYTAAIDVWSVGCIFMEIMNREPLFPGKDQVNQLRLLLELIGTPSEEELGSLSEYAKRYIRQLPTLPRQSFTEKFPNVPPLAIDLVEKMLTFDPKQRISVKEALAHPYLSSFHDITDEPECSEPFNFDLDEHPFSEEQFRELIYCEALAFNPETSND

effect of a mutation on the interaction	Variant
increasing interaction	MKKGGFSNNLKLAIPVAGEQSITKFLTQSGTFKDGDLRVNKDGVRIISQLEPEVLSPIKPADDQLSLSDLDMVKVIGKGSSGVVQLVQHKWTGQFFALKVIQLNIDEAIRKAIAQELKINQSSQCPNLVTSYQSFYDNGAISLILEYMDGGSLADFLKSVKAIPDSYLSAIFRQVLQGLIYLHHDRHIIHRDLKPSNLLINHRGEVKITDFGVSTVMTNDAGLANTFVGTYNYMSPERIVGNKYGNKSDIWSLGLVVLECATGKFPYAPPNQEETWTSVFELMEAIVDQPPPALPSGNFSPELSSFISTCLQKDPNSRSSAKELMEHPFLNKYDYSGINLASYFTDAGSPLATLGNLSGTFSV [T220D]
increasing interaction	MKKGGFSNNLKLAIPVAGEQSITKFLTQSGTFKDGDLRVNKDGVRIISQLEPEVLSPIKPADDQLSLSDLDMVKVIGKGSSGVVQLVQHKWTGQFFALKVIQLNIDEAIRKAIAQELKINQSSQCPNLVTSYQSFYDNGAISLILEYMDGGSLADFLKSVKAIPDSYLSAIFRQVLQGLIYLHHDRHIIHRDLKPSNLLINHRGEVKITDFGVSTVMTNTAGLANEFVGTYNYMSPERIVGNKYGNKSDIWSLGLVVLECATGKFPYAPPNQEETWTSVFELMEAIVDQPPPALPSGNFSPELSSFISTCLQKDPNSRSSAKELMEHPFLNKYDYSGINLASYFTDAGSPLATLGNLSGTFSV [T226E]

Variants of: B1
Conditions: with mpk13_arath MPK13, Q9LQQ9
mpk13_arath MPK13, Q9LQQ9, sequence (Q9LQQ9 whole entry): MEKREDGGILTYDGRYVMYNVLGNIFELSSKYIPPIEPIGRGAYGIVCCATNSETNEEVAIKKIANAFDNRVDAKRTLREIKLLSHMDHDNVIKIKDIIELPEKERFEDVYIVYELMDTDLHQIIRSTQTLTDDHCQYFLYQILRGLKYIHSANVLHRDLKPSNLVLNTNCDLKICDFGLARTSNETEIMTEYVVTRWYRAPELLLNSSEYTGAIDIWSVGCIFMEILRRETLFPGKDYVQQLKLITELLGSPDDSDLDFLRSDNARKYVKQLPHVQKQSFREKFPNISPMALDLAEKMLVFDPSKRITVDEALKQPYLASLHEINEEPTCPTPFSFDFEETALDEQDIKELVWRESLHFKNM

effect of a mutation on the interaction	Variant
increasing interaction	MKKGGFSNNLKLAIPVAGEQSITKFLTQSGTFKDGDLRVNKDGVRIISQLEPEVLSPIKPADDQLSLSDLDMVKVIGKGSSGVVQLVQHKWTGQFFALKVIQLNIDEAIRKAIAQELKINQSSQCPNLVTSYQSFYDNGAISLILEYMDGGSLADFLKSVKAIPDSYLSAIFRQVLQGLIYLHHDRHIIHRDLKPSNLLINHRGEVKITDFGVSTVMTNDAGLANTFVGTYNYMSPERIVGNKYGNKSDIWSLGLVVLECATGKFPYAPPNQEETWTSVFELMEAIVDQPPPALPSGNFSPELSSFISTCLQKDPNSRSSAKELMEHPFLNKYDYSGINLASYFTDAGSPLATLGNLSGTFSV [T220D]
increasing interaction	MKKGGFSNNLKLAIPVAGEQSITKFLTQSGTFKDGDLRVNKDGVRIISQLEPEVLSPIKPADDQLSLSDLDMVKVIGKGSSGVVQLVQHKWTGQFFALKVIQLNIDEAIRKAIAQELKINQSSQCPNLVTSYQSFYDNGAISLILEYMDGGSLADFLKSVKAIPDSYLSAIFRQVLQGLIYLHHDRHIIHRDLKPSNLLINHRGEVKITDFGVSTVMTNTAGLANEFVGTYNYMSPERIVGNKYGNKSDIWSLGLVVLECATGKFPYAPPNQEETWTSVFELMEAIVDQPPPALPSGNFSPELSSFISTCLQKDPNSRSSAKELMEHPFLNKYDYSGINLASYFTDAGSPLATLGNLSGTFSV [T226E]

Variants of: B2
Conditions: with mpk11_arath MPK11, Q9LMM5

effect of a mutation on the interaction	Variant
increasing interaction	MNRGSLCPNPICLPPLEQSISKFLTQSGTFKDGDLRVNKDGIQTVSLSEPGAPPPIEPLDNQLSLADLEVIKVIGKGSSGNVQLVKHKLTQQFFALKVIQLNTEESTCRAISQELRINLSSQCPYLVSCYQSFYHNGLVSIILEFMDGGSLADLLKKVGKVPENMLSAICKRVLRGLCYIHHERRIIHRDLKPSNLLINHRGEVKITDFGVSKILTSTSSLANDFVGTYPYMSPERISGSLYSNKSDIWSLGLVLLECATGKFPYTPPEHKKGWSSVYELVDAIVENPPPCAPSNLFSPEFCSFISQCVQKDPRDRKSAKELLEHKFVKMFEDSDTNLSAYFTDAGSLIPPLAN [S224D]
increasing interaction	MNRGSLCPNPICLPPLEQSISKFLTQSGTFKDGDLRVNKDGIQTVSLSEPGAPPPIEPLDNQLSLADLEVIKVIGKGSSGNVQLVKHKLTQQFFALKVIQLNTEESTCRAISQELRINLSSQCPYLVSCYQSFYHNGLVSIILEFMDGGSLADLLKKVGKVPENMLSAICKRVLRGLCYIHHERRIIHRDLKPSNLLINHRGEVKITDFGVSKILTSESSLANSFVGTYPYMSPERISGSLYSNKSDIWSLGLVLLECATGKFPYTPPEHKKGWSSVYELVDAIVENPPPCAPSNLFSPEFCSFISQCVQKDPRDRKSAKELLEHKFVKMFEDSDTNLSAYFTDAGSLIPPLAN [T218E]

Variants of: B3
Conditions: with mpk4_arath MPK4, Q39024

effect of a mutation on the interaction	Variant
increasing interaction	MNRGSLCPNPICLPPLEQSISKFLTQSGTFKDGDLRVNKDGIQTVSLSEPGAPPPIEPLDNQLSLADLEVIKVIGKGSSGNVQLVKHKLTQQFFALKVIQLNTEESTCRAISQELRINLSSQCPYLVSCYQSFYHNGLVSIILEFMDGGSLADLLKKVGKVPENMLSAICKRVLRGLCYIHHERRIIHRDLKPSNLLINHRGEVKITDFGVSKILTSESSLANSFVGTYPYMSPERISGSLYSNKSDIWSLGLVLLECATGKFPYTPPEHKKGWSSVYELVDAIVENPPPCAPSNLFSPEFCSFISQCVQKDPRDRKSAKELLEHKFVKMFEDSDTNLSAYFTDAGSLIPPLAN [T218E]
increasing interaction	MNRGSLCPNPICLPPLEQSISKFLTQSGTFKDGDLRVNKDGIQTVSLSEPGAPPPIEPLDNQLSLADLEVIKVIGKGSSGNVQLVKHKLTQQFFALKVIQLNTEESTCRAISQELRINLSSQCPYLVSCYQSFYHNGLVSIILEFMDGGSLADLLKKVGKVPENMLSAICKRVLRGLCYIHHERRIIHRDLKPSNLLINHRGEVKITDFGVSKILTSTSSLANDFVGTYPYMSPERISGSLYSNKSDIWSLGLVLLECATGKFPYTPPEHKKGWSSVYELVDAIVENPPPCAPSNLFSPEFCSFISQCVQKDPRDRKSAKELLEHKFVKMFEDSDTNLSAYFTDAGSLIPPLAN [S224D]

— IntAct's records for PubMed 19513235
